What was measured:
[1] = Enzyme recycling experiments; assay type: biochemical; details: for 1-undecene produced (activity) compared with the original PFL_4321: recycled after single turnover with EDTA, reconstituted with fresh Fe2+
Experimental: To recycle the PFL_4321, 1 mL of the oxygenated buffer solution (50 mM MES, pH 6.2, 100 mM NaCl) was mixed with 1 mL of an O2-free solution containing 50 mM MES buffer (pH 6.2), 100 mM NaCl, 200 μM PFL_4321, 1 mM (NH4)2Fe(SO4)2, 2 mM LA, so that the final mixture contained 50 mM MES buffer (pH 6.2), 100 mM NaCl, 100 μM PFL_4321, 0.5 mM (NH4)2Fe(SO4)2, and 1 mM LA. This original reaction was quenched by adding 10-fold excess of EDTA to iron. The mixture was desalted on a GE Disposable PD-10 column and incubated at 4° C. on a nutator for two hours to completely remove the residual 1-undecene in the solution. The recycled apo-PFL_4321 was concentrated by using Centrifugal Filter Units (Millipore) and subjected to a second enzymatic assay that contained 50 mM MES buffer (pH 6.2), 100 mM NaCl, 100 μM PFL_4321, 0.5 mM (NH4)2Fe(SO4)2, and 1 mM LA. To initiate the reaction, 100 μL of the oxygenated buffer solution (50 mM MES, pH 6.2, 100 mM NaCl) was mixed with 100 μL of an O2-free solution containing 50 mM MES buffer (pH 6.2), 100 mM NaCl, 200 μM PFL_4321, 1 mM (NH4)2Fe(SO4)2, 2 mM LA. The control group was set up under similar conditions except that the original apo-PFL_4321 which had not been used for any enzymatic reactions was used. The experimental group containing recycled PFL_4321 produced 80% of the 1-undecene compared with the control group that contained the original PFL_4321.

[2] = tested on: Saccharomyces cerevisiae S288c; experiment: Small-scale 1-alkene production in S. cerevisiae; assay type: cell-based; details: expression of PFL_4321, 30° C., 36 hours
Experimental: FIG. 25 illustrates GC-MS analysis of 1-undecene and nonene productions from Saccharomyces cerevisiae S288c (pESC_URA_PFL_4321). Saccharomyces cerevisiae S288c (pESC_URA_PFL_4321) was cultured in YPD media in sealed headspace vial at 30° C. for 36 hours before sampling using SPME-GCMS method.
PFL_4321 was PCR-amplified by using pESC-und-F/-R as primers (Table 1) and pZR59 as template, digested with BamH1/Sal1, and ligated into the pESC-URA vector to yield pESC-PFL_4321. S. cerevisiae was then transformed with pESC-PFL_4321 using the lithium acetate method outlined in the pESC-URA manual (Stratagene). Transformants were selected by […]. The cultures were grown in yeast-peptone media supplemented with 1% galactose in headspace GC vials at 30° C. for 36 hr before SPME-GCMS analysis.

[3] = Stoichiometry determination in single-turnover reactions; assay type: biochemical
Experimental: FIG. 27 illustrates the requirement for O2 for PFL_4321 activity.
To investigate 1-undecene formation and the O2 consumption, 0.5 mL of reaction mixture was prepared to contain 50 mM MES buffer (pH 6.2), 300 mM NaCl, 45 μM PFL_4321-Fe(II), and 500 μM LA (25 mM stock solution of LA sodium salt was prepared in 2% tergitol; tergitol is not required for <150 μM of LA). MES buffer (pH 6.2) was selected to reach slightly higher enzymatic activity than other buffers such as Bis-Tris (pH 6.0-7.0), Tris (pH 7.5-8.5), MOPS (pH 6.5-7.5), and HEPES (pH 6.8-8.0). The reaction was performed in a sealed headspace vial, initiated by adding PFL_4321 at room temperature and quenched by injecting equal volume of 5 M NaOH. 1-undecene production was analyzed and quantified using the SPME-GCMS method. The correlations of total 1-undecene produced and enzyme used were further determined varying PFL_4321 concentrations (40-1000 μM), and similar single turnover reactions were obtained in all assays (˜0.7-0.8 molecule of 1-undecene per molecule of PFL_4321-Fe(II)). O2 concentration was measured in a sealed reaction chamber (0.5 mL) with an integrated oxygen electrode unit (Oxygraph Plus System, Hansatech Instruments, UK). For the control group, LA was omitted from the reaction mixture.

[4] = In vitro anaerobic enzymatic assays; assay type: biochemical
Experimental: FIG. 6 illustrates GC-MS detection of 1-undecene production by PFL_4321 in the aerobic/anaerobic assays. The anaerobic assay was performed by using the anaerobically purified enzyme and degassed reagents, adding glucose oxidase/glucose/catalase, and conducting the experiment in an anaerobic chamber with ppm O2<0.7. The control aerobic assay was performed by using a similar reaction mixture under ambient air conditions and omitting glucose oxidase.
All of the reagents were bubbled with nitrogen gas and equilibrated in the anaerobic chamber overnight before use. E. coli BL21 Gold (DE3, pZR60_HRV3c) was grown, harvested, and lysed as mentioned above. The insoluble fraction was removed by centrifugation, and the soluble proteins were incubated with 1 mL of Ni-NTA beads (Qiagen) on a nutator at 4° C. for 1 hr. The proteins were then moved into the anaerobic chamber, loaded onto a gravity flow column, washed with washing buffer (50 mM imidazole, 20 mM Tris, 300 mM NaCl, pH 8.5), and eluted with eluting buffer (300 mM imidazole, 20 mM Tris, 300 mM NaCl, pH 8.5). Purified proteins were exchanged into 20 mM Tris (pH 8.5) and 300 mM NaCl by passing through a desalting column (GE Disposable PD-10), and then concentrated using Amicon Centrifugal Filter Units. The protein solution was equilibrated in the anaerobic chamber on a Thermomixer at 4° C. overnight. […]

[5] = measured stoichiometry, aerobic

B1: PFL_4321: protein of 261 amino acids from Pseudomonas fluorescens Pf-5; non-heme iron (II)-dependent enzyme converting medium-chain fatty acids into terminal olefins (protein, listed as Pseudomonas fluorescens)
chain: MIDTFSRTGPLMEAASYPAWTQQLIQDCSESKRRVVEHELYQRMRDNKLSAKVMRQYLIGGWPVVEQFALYMAQNLTKTRFARHPGEDMARRWLMRNIRVELNHADYWVHWSRAHGVTLEDLQAQQVPPELHALSHWCWHTSSADSLIVAIAATNYAIEGATGEWSALVCSNGIYAAAFPEEDRKRAMKWLKMHAQYDDAHPWEALEIIVTLAGLNPTKALQAELRQAICKSYDYMYLFLERCMQQEKTAVTRERLALAEG
1-undecene production by recycled enzyme ([1]; EDTA omitted, desalted): failed to catalyze the reaction | 1-undecene produced (activity) compared with the original PFL_4321 ([1]; listed as apo-PFL_4321): over 80% | 1-undecene produced (activity) compared with the original PFL_4321 ([1]; listed as recycled PFL_4321): 80% | production of 1-alkenes in Saccharomyces cerevisiae [2]: led to the production of 1-undecene and 1-nonene in comparable amounts | 1-undecene produced per molecule of PFL_4321-Fe(II) [3, 5]: approximately one | O2 consumed per molecule of PFL_4321-Fe(II) [3, 5]: approximately one | total 1-undecene produced per enzyme used ([3]; single turnover reactions, PFL_4321 40-1000 μM): 0.7-0.8 molecule of 1-undecene per molecule of PFL_4321-Fe(II) | 1-undecene production in anaerobic enzymatic assays ([4]; anaerobic): nearly abolished | decrease of 1-undecene production in anaerobic enzymatic assays ([4]; anaerobic versus aerobic): more than 150 fold

Reference: patent publication US10000775B2, “Biosynthesis of 1-undecene and related terminal olefins” (The Regents of the University of California, priority 2013, dated 2018)
